Laboratory results reported in patent US20150031601A1.
One block for each binder: values may come before it.

Target: serum proteins
Test: 90% serum, 30 kDa ultrafiltration, HPLC

Protein binding (%): 80%
B1: SEQ ID NO: 359 (peptide)
peptide: RFCWNVCVYRNGVRVCHRHCN

Protein binding (%): 88%
B2: SEQ ID NO: 46 (peptide)
peptide: GFCWYVCVYRNGVRVCHRRCN

Protein binding (%): 85%
B3: SEQ ID NO: 435 (peptide)
peptide: GFCWRVCASRNGLRVCYRRCN

Protein binding (%): 93%
B4: SEQ ID NO: 87 (peptide)
peptide: GFCWYVCVKRNGVRSCYRRCN

Protein binding (%): 89%
B5: SEQ ID NO: 47 (peptide)
peptide: GFCWYVCVYRNGVRVCKRRCN

Protein binding (%): 95%
B6: SEQ ID NO: 335 (peptide)
peptide: GFCWRVCVRRNGVRVCHRRCN

Protein binding (%): 87%
B7: SEQ ID NO: 509 (peptide)
peptide: GFCWRVCVYSNGKRSCHRRCN

Protein binding (%): 98%
B8: SEQ ID NO: 45 (peptide)
peptide: GFCWYVCVYRNGVRTCYRRCN

Protein binding (%): 97%
B9: SEQ ID NO: 72 (peptide)
peptide: GFCWRACVYRNGVRVCYRRCN

Protein binding (%): 88%
B10: SEQ ID NO: 407 (peptide)
peptide: GFCWNACARRNGVRVCYRRCN

Protein binding (%): 93%
B11: SEQ ID NO: 38 (peptide)
peptide: GFCWYVCVYRNGVRGCYRRCN

Protein binding (%): 95%
B12: SEQ ID NO: 417 (peptide)
peptide: GFCWRACAYRNGKRVCYRRCN

Protein binding (%): 90%
B13: SEQ ID NO: 89 (peptide)
peptide: GFCWYVCVYKNGVRVCHRRCN

Protein binding (%): 81%
B14: SEQ ID NO: 386 (peptide)
peptide: GFCGRVCVYRNGKRACYRRCN

Protein binding (%): 95%
B15: SEQ ID NO: 504 (peptide)
peptide: GFCWKVCARRNGARSCYRRCN

Protein binding (%): 98%
B16: SEQ ID NO: 39 (peptide)
peptide: GFCWYVCVYRNGVRHCYRRCN

Protein binding (%): 99%
B17: SEQ ID NO: 33 (peptide)
peptide: GFCWYVCVYRNGPRVCYRRCN

Protein binding (%): 96%
B18: SEQ ID NO: 42 (peptide)
peptide: GFCWYVCVYRNGVRQCYRRCN

Protein binding (%): 98%
B19: SEQ ID NO: 450 (peptide)
peptide: GFCWYACAKRNGLRVCYRRCN

Protein binding (%): 80%
B20: SEQ ID NO: 363 (peptide)
peptide: GFCARVCAKRNGVRVCYRRCN

Protein binding (%): 95%
B21: SEQ ID NO: 331 (peptide)
peptide: GFCWRVCSYRNGVRKCYRRCN

Protein binding (%): 69%
B22: SEQ ID NO: 425 (peptide)
peptide: GFCWRVCAYSNGKRVCYRRCN

Protein binding (%): 99%
B23: SEQ ID NO: 53 (peptide)
peptide: GFCWYVCVYRNGVRVCYRRCS

Protein binding (%): 64%
B24: SEQ ID NO: 60 (peptide)
peptide: GFCGHVCVYRNGVRVCYRRCN

Protein binding (%): 87%
B25: SEQ ID NO: 390 (peptide)
peptide: GFCWHVCVYKNGKRSCYRRCN

Protein binding (%): 86%
B26: SEQ ID NO: 346 (peptide)
peptide: GFCWYTCVKRNGLRVCYRRCN

Protein binding (%): 86%
B27: SEQ ID NO: 3 (peptide)
peptide: GACWYVCVYRNGVRVCYRRCN

Protein binding (%): 92%
B28: SEQ ID NO: 396 (peptide)
peptide: GFCWHVCSKRNGLRVCYRRCN

Protein binding (%): 99%
B29: SEQ ID NO: 54 (peptide)
peptide: GFCWYVCVYRNGVRVCYRRCT

Protein binding (%): 98.5%
B30: SEQ ID NO: 21 (peptide)
peptide: GFCWYVCAYRNGVRVCYRRCN

Protein binding (%): 72%
B31: SEQ ID NO: 61 (peptide)
peptide: GFCGRVCVYRNGVRVCYRRCN

Protein binding (%): 98%
B32: SEQ ID NO: 340 (peptide)
peptide: GFCWYACVYRNGKRACYRRCN

Protein binding (%): 98%
B33: SEQ ID NO: 25 (peptide)
peptide: GFCWYVCYYRNGVRVCYRRCN

Protein binding (%): 92%
B34: SEQ ID NO: 28 (peptide)
peptide: GFCWYVCVRRNGVRVCYRRCN

Protein binding (%): 68%
B35: SEQ ID NO: 48 (peptide)
peptide: GFCWYVCVYRNGVRVCNRRCN

Protein binding (%): 94%
B36: SEQ ID NO: 56 (peptide)
peptide: GFCFYVCVYRNGVRVCRRRCN

Protein binding (%): 96%
B37: SEQ ID NO: 80 (peptide)
peptide: GFCWYACVYRNGKRVCYRRCN

Protein binding (%): 90%
B38: SEQ ID NO: 523 (peptide)
peptide: GFCWRVCAYKNGKRSCYRRCN

Protein binding (%): 60%
B39: SEQ ID NO: 36 (peptide)
peptide: GFCWYVCVYRNGSRVCYRRCN

Protein binding (%): 77%
B40: SEQ ID NO: 493 (peptide)
peptide: GFCGRVCVYKNGKRACYRRCN

Protein binding (%): 92%
B41: SEQ ID NO: 453 (peptide)
peptide: GFCWYVCARRNGLRSCYRRCN

Protein binding (%): 74%
B42: SEQ ID NO: 343 (peptide)
peptide: GFCWYACAYRNGVRACYRRCN

Protein binding (%): 90%
B43: SEQ ID NO: 316 (peptide)
peptide: GFCWRVCVYRNGVRSCHRRCN

Protein binding (%): 92%
B44: SEQ ID NO: 76 (peptide)
peptide: GFCWRVCVYRNGVRVCHRRCN

Protein binding (%): 99%
B45: SEQ ID NO: 29 (peptide)
peptide: GFCWYVCVYRNGARVCYRRCN

Protein binding (%): 99%
B46: SEQ ID NO: 74 (peptide)
peptide: GFCWRVCHYRNGVRVCYRRCN

Protein binding (%): 76%
B47: SEQ ID NO: 362 (peptide)
peptide: GFCAHVCVKRNGARVCYRRCN

Protein binding (%): 98%
B48: SEQ ID NO: 23 (peptide)
peptide: GFCWYVCHYRNGVRVCYRRCN

Protein binding (%): 85%
B49: SEQ ID NO: 44 (peptide)
peptide: GFCWYVCVYRNGVRSCYRRCN

Protein binding (%): 40%
B50: SEQ ID NO: 319 (peptide)
peptide: GFCWRACVYRNGVRACYRRCN

Protein binding (%): 68%
B51: SEQ ID NO: 7 (peptide)
peptide: GFCSYVCVYRNGVRVCYRRCN

Protein binding (%): 87%
B52: SEQ ID NO: 68 (peptide)
peptide: GFCWKVCVYRNGVRVCSRRCN

Protein binding (%): 79%
B53: NZ17074 (the antimicrobial peptide of SEQ ID NO: 70) (peptide)
peptide: GFCWNVCVYRNGVRVCHRRCN

Protein binding (%): 65%
B54: SEQ ID NO: 377 (peptide)
peptide: GFCFRSCVRRNGVRVCYRRCN

Protein binding (%): 98%
B55: SEQ ID NO: 381 (peptide)
peptide: GFCFRVCVKRNGVRKCYRRCN

Protein binding (%): 89%
B56: SEQ ID NO: 4 (peptide)
peptide: GFCAYVCVYRNGVRVCYRRCN

Protein binding (%): 85%
B57: SEQ ID NO: 24 (peptide)
peptide: GFCWYVCSYRNGVRVCYRRCN

Protein binding (%): 80%
B58: SEQ ID NO: 394 (peptide)
peptide: GFCWHVCARRNGARVCYRRCN

Protein binding (%): 99%
B59: SEQ ID NO: 30 (peptide)
peptide: GFCWYVCVYRNGGRVCYRRCN

Protein binding (%): 98%
B60: SEQ ID NO: 327 (peptide)
peptide: GFCWRVCHYRNSVRVCYRRCN

Protein binding (%): 92%
B61: SEQ ID NO: 439 (peptide)
peptide: GFCWRVCHYSNGKRVCYRRCN

Protein binding (%): 90%
B62: SEQ ID NO: 454 (peptide)
peptide: GFCWYVCVKRNGARKCHRRCN

Protein binding (%): 86%
B63: SEQ ID NO: 411 (peptide)
peptide: GFCWNVCAYRNGKRACYRRCN

Protein binding (%): 97%
B64: SEQ ID NO: 41 (peptide)
peptide: GFCWYVCVYRNGVRNCYRRCN

Protein binding (%): 99.5%
B65: antimicrobial peptide of SEQ ID NO: 2 (the parent antimicrobial peptide) (peptide)
peptide: GFCWYVCVYRNGVRVCYRRCN

Protein binding (%): 88%
B66: SEQ ID NO: 320 (peptide)
peptide: GFCWRACVYRNGVRSCYRRCN

Protein binding (%): 92%
B67: SEQ ID NO: 418 (peptide)
peptide: GFCWRACAYRNGVRACYRRCN
